Assay results as given in PMC5557881.

How the values were obtained:
[1] = target: Sigma mSPE-7 IgE (commercial mouse monoclonal anti-dinitrophenyl IgE, SPE-7, from Sigma) (mouse); details: scale: % of the activity of the unpurified Sigma SPE-7 IgE
[2] = target: mSPE-7 IgE from the NS1 hybridoma (mouse anti-dinitrophenyl IgE) (mouse); details: scale: % of the unpurified Sigma SPE-7 IgE's activity
[3] = target: mSPE-7 IgE from the NS1 hybridoma (mouse anti-dinitrophenyl IgE) (mouse); test: SEC-MALLS; peak B of the Superdex 200 Increase fractionation of NS1 mSPE-7 IgE, run again on Superdex 200 Increase with inline light scattering and refractometer

| degranulation of RBL-SX38 cells (β-hexosaminidase release) without antigen by component B of Sigma SPE-7 IgE, against unpurified Sigma SPE-7 IgE [1] | degranulation of RBL-SX38 cells (β-hexosaminidase release) without antigen by peak B (IgE trimer) of NS1 mSPE-7 IgE, against unpurified Sigma SPE-7 IgE [2] | stoichiometry N [3] | Substance |
| --- | --- | --- | --- |
| 65 |  |  | Sigma mSPE-7 IgE (commercial mouse monoclonal anti-dinitrophenyl IgE, SPE-7, from Sigma) (antibody) |
|  | 55 | 3 | mSPE-7 IgE from the NS1 hybridoma (mouse anti-dinitrophenyl IgE) (antibody) |
